The subject of the series is T1, CC(=O)N[C@@H](C)C(=O)N[C@@H](C)C(=O)N1CCC[C@H]1C(=O)N[C@H](C(=O)N1CCC[C@H]1C(=O)N[C@H](C(=O)N[C@@H](C)C(=O)N[C@@H](C)C(=O)N1CCC[C@H]1C(N)=O)C(C)C)[C@@H](C)O[C@H]1O[C@H](CO)[C@@H](O)[C@H](O)[C@@H]1O.
T1 construct: 595 amino acids from 66: Ser thereof (66: Ser to 660: Thr), respectively; Ig kappa chain secretory signal (N); made in house; host or cells: HEK293T (transient, secreted into serum-free medium)
The experiment in a line: Substrate specificity and kinetic parameters of solubilized human OMGnT enzyme (L). The note with it: other: 125 mM MOPS pH7.3, 0.2 mM UDP-GlcNAc, 7.5 mM MnCl2, 37° C., 2 hours, pH 7.3. Type of series: biochemical. How it is done: […] […] The reaction mixture was then filtered with a filter Ultrafree-MC (Millipore) having a pore size of 0.22 μm to remove solids, and analyzed by Wakopak 5C18-200 column (4.6×250 mm, Wako Pure Chemical Industries, Ltd.). The separation was carried out using concentration gradient with Solution A and Solution B at a flow rate of 1.0 ml/min. […] Peptide detection was carried out at 214 nm, and the radioactivity of each fraction was assayed using a liquid scintillation counter.
The activity of GnT-1 was assayed with a method by Yoshida et al. [Yoshida, S., Suzuki, M., Yamano, S., Takeuchi, M., Ikenaga, H., Kioka, N., Sakai, H., and Komano, T., Glycobiology, (1999), 9, 53–58] as described below. A 20 μl reaction solution was prepared by adding an enzyme source thereto so as to have a final concentration of 100 mM MES (pH 6.0), 20 mM MnCl2, 5 μM Manα1–6(Manα1–3)Manα1–6(Manα1–3)Manβ1–4GlcNAcβ1–4GlcNAc-PA(M5GN2-PA; Takara Shuzo, PA-Sugar Chain 017), 1 mM UDP-GlcNAc, 100 mM GlcNAc, 5 mM AMP, 1% Triton X-100, and 0.2% BSA. The reaction solution was incubated at 37° C. for 1 hour, and the reaction was terminated in boiling water. Thereafter, the reaction solution was analyzed by a reverse phase HPLC (Cosmosil 5C18-AR column) available from Nacalai Tesque. […]

His-Xpress-sOMGnT(L) (Homo sapiens; M623V), sequence (chain, as listed by the source M623V): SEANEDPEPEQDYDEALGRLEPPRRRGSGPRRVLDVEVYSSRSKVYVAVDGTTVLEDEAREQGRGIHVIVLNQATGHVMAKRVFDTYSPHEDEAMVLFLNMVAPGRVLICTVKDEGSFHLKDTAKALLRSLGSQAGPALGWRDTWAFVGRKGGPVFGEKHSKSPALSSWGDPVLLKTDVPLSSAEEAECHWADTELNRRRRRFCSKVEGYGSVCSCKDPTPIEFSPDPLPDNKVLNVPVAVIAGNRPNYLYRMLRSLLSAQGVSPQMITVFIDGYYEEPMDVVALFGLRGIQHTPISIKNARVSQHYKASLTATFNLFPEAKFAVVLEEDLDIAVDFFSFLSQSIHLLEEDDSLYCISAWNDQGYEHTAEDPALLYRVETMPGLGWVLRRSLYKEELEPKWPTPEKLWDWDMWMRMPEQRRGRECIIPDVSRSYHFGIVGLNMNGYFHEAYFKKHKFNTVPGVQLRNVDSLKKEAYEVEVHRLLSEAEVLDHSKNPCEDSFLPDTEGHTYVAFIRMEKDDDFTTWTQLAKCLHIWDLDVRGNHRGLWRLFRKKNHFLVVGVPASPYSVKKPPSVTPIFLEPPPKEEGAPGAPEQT

On to “His-Xpress-sOMGnT(L) (Homo sapiens; M623V)”, for which the Michaelis constant (Km) turned out to be 1850 µM.

The values above are taken from US7217548B2, “N-acetylglucosaminlytransferase and polynucleotide encoding the same” (National Institute of Advanced Industrial Science and …, priority 2000, dated 2007).
